Molecular target: T1, complement iC3b on erythrocytes (EAiC3b) (human, UniProt P01024 23-667; P01024 749-1303; P01024 1321-1663, limits assumed)
T1 construct: iC3b is a multi-chain fragment of C3; also called human iC3b
Experiment: fluoresceinated EAiC3b on immobilized protein
Description: For the inhibition studies, E were preincubated with each recombinant protein or pure peptide in the presence of 2% BSA for 5 minutes at RT and added to wells coated with immobilized protein or peptide without washing, unless otherwise indicated. At the end of the binding reactions, wells were washed, examined briefly by light microscopy then solubilized with 1% SDS-0.2 N NaOH. Fluorescence was quantified (excitatory wavelength, 490 nm, emission wavelength, 510 nm) using a SLM 8000 fluorometer (SLM Instruments, Urbana, Ill.). In experiments where the effects of individual divalent cations were measured, Ca²⁺ and Mg²⁺ were replaced with metal-free buffers or with buffers containing each cation at 1. MM, unless otherwise indicated. The effect of temperature was evaluated in the presence of 1 mM MnCl₂ at 37° C. and at 4° C.

T1 sequence (P01024 23-667 limits assumed, chain 1 of 3): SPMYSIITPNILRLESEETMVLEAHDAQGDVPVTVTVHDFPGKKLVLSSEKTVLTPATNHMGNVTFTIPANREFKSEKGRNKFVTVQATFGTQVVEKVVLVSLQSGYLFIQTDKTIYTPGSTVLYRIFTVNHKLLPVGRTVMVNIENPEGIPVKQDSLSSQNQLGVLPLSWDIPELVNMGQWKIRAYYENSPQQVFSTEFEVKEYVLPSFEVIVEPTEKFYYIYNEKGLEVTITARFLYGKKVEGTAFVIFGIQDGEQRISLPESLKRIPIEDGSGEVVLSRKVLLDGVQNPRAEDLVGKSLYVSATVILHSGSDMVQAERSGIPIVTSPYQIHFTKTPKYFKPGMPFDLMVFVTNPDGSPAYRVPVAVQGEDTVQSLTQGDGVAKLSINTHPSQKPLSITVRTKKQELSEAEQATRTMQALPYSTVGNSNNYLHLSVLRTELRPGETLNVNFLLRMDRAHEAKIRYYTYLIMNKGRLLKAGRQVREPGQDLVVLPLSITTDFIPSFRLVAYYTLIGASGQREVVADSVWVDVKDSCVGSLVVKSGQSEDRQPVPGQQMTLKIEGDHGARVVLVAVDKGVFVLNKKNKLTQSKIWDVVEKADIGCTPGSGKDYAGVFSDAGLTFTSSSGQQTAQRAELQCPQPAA
T1 sequence (P01024 749-1303 limits assumed, chain 2 of 3): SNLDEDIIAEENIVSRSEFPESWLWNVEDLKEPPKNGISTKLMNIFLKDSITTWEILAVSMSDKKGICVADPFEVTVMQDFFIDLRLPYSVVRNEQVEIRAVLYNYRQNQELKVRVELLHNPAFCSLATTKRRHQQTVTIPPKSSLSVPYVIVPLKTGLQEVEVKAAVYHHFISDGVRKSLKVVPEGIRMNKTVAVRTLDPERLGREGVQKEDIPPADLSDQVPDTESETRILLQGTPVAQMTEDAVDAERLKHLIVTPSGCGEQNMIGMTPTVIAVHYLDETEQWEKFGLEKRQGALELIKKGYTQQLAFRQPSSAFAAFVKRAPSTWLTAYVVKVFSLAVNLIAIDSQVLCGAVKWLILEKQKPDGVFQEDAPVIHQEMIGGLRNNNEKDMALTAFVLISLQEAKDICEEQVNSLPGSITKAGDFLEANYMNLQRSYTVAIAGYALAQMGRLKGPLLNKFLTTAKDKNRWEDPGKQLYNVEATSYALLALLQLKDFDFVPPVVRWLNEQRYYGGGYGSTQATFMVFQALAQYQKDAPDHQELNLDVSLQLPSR
T1 sequence (P01024 1321-1663 limits assumed, chain 3 of 3): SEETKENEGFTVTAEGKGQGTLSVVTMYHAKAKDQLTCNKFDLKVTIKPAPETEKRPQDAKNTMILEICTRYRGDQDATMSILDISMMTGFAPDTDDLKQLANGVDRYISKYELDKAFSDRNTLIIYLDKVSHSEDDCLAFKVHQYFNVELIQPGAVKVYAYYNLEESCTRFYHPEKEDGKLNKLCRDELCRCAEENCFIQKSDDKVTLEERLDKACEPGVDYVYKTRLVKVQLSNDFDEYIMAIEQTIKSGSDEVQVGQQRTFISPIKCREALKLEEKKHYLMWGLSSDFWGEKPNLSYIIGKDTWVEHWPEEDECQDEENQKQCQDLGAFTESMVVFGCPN

B1: recombinant CD11a A domain (receptor, human, UniProt P20701 153-332, looked up)
chain: GNVDLVFLFDGSMSLQPDEFQKILDFMKDVMKKLSNTSYQFAAVQFSTSYKTEFDFSDYVKRKDPDALLKHVKHMLLLTNTFGAINYVATEVFREELGARPDATKVLIIITDGEATDSGNIDAAKDIIRYIIGIGKHFQTKESQETLHKFASKPASEFVKILDTFEKLKDLFTELQKKIY
notes: domain: A domain; Expressed as a GST fusion in E. coli, used as such or released by thrombin; also called r11aA; rCD11a A-domain
  binding result: no binding

Source: US20050227296A1 (GENERAL HOSPITAL CORPORATION A MASSACHUSETTS, published 2005)
